Experimental findings from PMC3883301, “FLC-mediated flowering repression is positively regulated by sumoylation” (Journal of Experimental Botany, 2013) are described below.

The labels stand for the following.
B1: His6-FLC (flowering locus C, full length) (natural protein, Arabidopsis thaliana, UniProt Q9S7Q7 1-196, looked up)
chain: MGRKKLEIKRIENKSSRQVTFSKRRNGLIEKARQLSVLCDASVALLVVSASGKLYSFSSGDNLVKILDRYGKQHADDLKALDHQSKALNYGSHYELLELVDSKLVGSNVKNVSIDALVQLEEHLETALSVTRAKKTELMLKLVENLKEKEKMLKEENQVLASQMENNHHVGAEAEMEMSPAGQISDNLPVTLPLLN
notes: Flowering locus C (FLC), MADS-box transcription factor, Arabidopsis; full-length cDNA in pET28a; The printed name puts His6 before FLC; also called Arabidopsis FLC; source: E. coli BL21/DE3 (pLysS), purified (Ni2+-NTA resin)

In one assay the target is T1, GST–FLC, full length (Arabidopsis thaliana, UniProt Q9S7Q7 1-196).
T1 construct: Flowering locus C (FLC), Arabidopsis, full-length GST–FLC bait; The construct section describes only GST–FLC-Myc (pGEX4T-1)
T1 sequence (looked up): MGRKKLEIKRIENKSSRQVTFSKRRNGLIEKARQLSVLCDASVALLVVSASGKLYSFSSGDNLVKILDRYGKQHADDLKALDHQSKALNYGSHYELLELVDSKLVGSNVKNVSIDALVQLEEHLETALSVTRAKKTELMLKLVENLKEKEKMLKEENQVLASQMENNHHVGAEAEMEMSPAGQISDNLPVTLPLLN
As to the kind of experiment: pull-down; 2 μg GST–FLC bait and 2 μg His6-FLC or His6-mFLC prey in 1 ml binding buffer (50 mM TRIS-HCl pH 7.5, 100 mM NaCl, 1% Triton X-100, 0.2% glycerol, 0.5 mM β-mercaptoethanol); 25 °C 2 h; glutathione resin; anti-His blot. The following applies: both partners purified.

In assay [1] the target is B1. As to the kind of experiment: pull-down; 2 μg GST–AtSIZ1 (full length or deletion mutant) or GST bait and 2 μg His6-FLC prey in 1 ml 50 mM TRIS-HCl pH 7.5, 100 mM NaCl, 1% Triton X-100, 0.2% glycerol, 0.5 mM β-mercaptoethanol; 25 °C 2 h; glutathione resin; anti-His blot. The note with it: both partners purified.

B1: the binding result in the assay with GST–FLC, full length is on record as “binds”.

B2: His6-mFLC (FLC K154R) (natural protein, Arabidopsis thaliana, UniProt Q9S7Q7 1-196, looked up)
chain: MGRKKLEIKRIENKSSRQVTFSKRRNGLIEKARQLSVLCDASVALLVVSASGKLYSFSSGDNLVKILDRYGKQHADDLKALDHQSKALNYGSHYELLELVDSKLVGSNVKNVSIDALVQLEEHLETALSVTRAKKTELMLKLVENLKEKEKMLREENQVLASQMENNHHVGAEAEMEMSPAGQISDNLPVTLPLLN
notes: Flowering locus C (FLC), Arabidopsis, full length with the sumoylation site mutation K154R; The construct section describes His6-FLC(K154R)-Myc only; also called mutant FLC; source: E. coli BL21, purified (Ni2+-NTA resin)
With B2, the binding result in the assay with GST–FLC, full length was “binds”.

B3: GST–AtSIZ1 (D3), amino acids 1–100 (domain or fragment, Arabidopsis thaliana, UniProt Q680Q4 1-100, looked up)
chain: MDLEANCKEKLSYFRIKELKDVLTQLGLSKQGKKQELVDRILTLLSDEQAARLLSKKNTVAKEAVAKLVDDTYRKMQVSGASDLASKGQVSSDTSNLKVK
notes: AtSIZ1, Arabidopsis, amino acids 1-100 (N-terminal region containing the SAP domain), in pGEX4T-1; also called N-terminal region containing the SAP domain of AtSIZ1; source: E. coli BL21/DE3 (pLysS), purified (glutathione resin)
Consider B3, for which the binding result in assay [1] is recorded as “binds”.
